The source of these data is WO2022154037A1 (dated 2022).

The target in experiment [1] is T1, antigen peptide in which Ser510 is not phosphorylated (non-phosphorylated LRH1 peptide) (human).
T1 construct: also called non-pS510-LRH1 peptide; peptide containing a non-phosphorylated product of serine at position 510
T1 peptide: RLPEIRAISMQAEE
The experiment can be described thus: ELISA, concentration series of peptide, purified antibody. For orientation: ELISA stands for enzyme-linked immunosorbent assay.

Experiment [2] concerns the target T2, mutant LRH1 (LRH1S510E; constitutive phosphorylated product) (human, UniProt O00482 1-541).
T2 construct: It is a nuclear protein, not on the cell surface; also called HEK293T:LRH1S510E
The experiment can be described thus: immunohistochemical staining of HEK293T cell block sections expressing LRH1S510E.

T2 sequence (O00482 whole entry S510E): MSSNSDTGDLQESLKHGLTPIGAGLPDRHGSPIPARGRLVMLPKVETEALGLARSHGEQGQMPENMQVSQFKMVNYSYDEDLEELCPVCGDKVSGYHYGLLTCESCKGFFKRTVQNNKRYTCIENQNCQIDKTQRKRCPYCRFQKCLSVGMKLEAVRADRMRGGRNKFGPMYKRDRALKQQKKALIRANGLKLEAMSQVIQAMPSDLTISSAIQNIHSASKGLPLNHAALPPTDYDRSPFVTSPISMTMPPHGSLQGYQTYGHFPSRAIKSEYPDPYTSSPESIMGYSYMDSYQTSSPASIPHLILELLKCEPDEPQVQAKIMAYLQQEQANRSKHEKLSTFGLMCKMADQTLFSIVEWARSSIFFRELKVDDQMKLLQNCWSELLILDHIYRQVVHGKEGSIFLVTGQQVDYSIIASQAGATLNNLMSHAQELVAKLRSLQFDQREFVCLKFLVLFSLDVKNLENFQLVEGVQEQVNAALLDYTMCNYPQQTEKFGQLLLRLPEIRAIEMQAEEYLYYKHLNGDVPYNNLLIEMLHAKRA

B1: anti-pSer510-LRH1 monoclonal antibody clone 55 (FMU-P2-C2) (antibody, V domains shown)
VH: EVKLVESGGGLVQPGGSLRLSCAASGFTFADFYMSWIRQSPGKAPEWLSFIRNKAKSYTTEYNPSVKGRFTISRDDTQNVLYLQMNTLRAEDTAIYYCAKHERGGAGDYWGQGVMVTVSL
VL: DIQMTQSPASLSASPEEIVTITCQASQDIGNWLTWYQQKPGKSPQLLIYSATSLADGIPSRFSGSRSGTQYSLKISRLQVEDTGIYYCLQRYSNPLTFGSGTKLEIK
notes: Rat monoclonal antibody from a hybridoma (Wistar rat iliac lymph node cells fused with mouse myeloma SP2), detected with anti-rat IgG secondary antibodies; also called rat anti-pSer510-LRH1 monoclonal antibody clone 55; purified anti-pSer510-LRH1 monoclonal antibody
As for B1, the binding result is reported as “no binding” in experiment [1] and “binds” in experiment [2].
